Patent US20190023785A1 (SHANGHAI JIAOTONG UNIVERSITY, published 2019)

Tests used:
[1] = target: GLP-1R expressed on CRE-Luc/GLP-1R HEK293 cells
hFcRn&b2M protein = target: T1, hFcRn&b2M protein (human, UniProt P61769 21-119, limits assumed); assay: binding affinity to hFcRn & b2M at pH 6.0, method not named; pH 6.0; soluble hFcRn & b2M as ligand
T1 construct: also called hFcRn&β2M; human FcRn protein
T1 sequence (chain, as listed by the source limits assumed, chain 1 of 2): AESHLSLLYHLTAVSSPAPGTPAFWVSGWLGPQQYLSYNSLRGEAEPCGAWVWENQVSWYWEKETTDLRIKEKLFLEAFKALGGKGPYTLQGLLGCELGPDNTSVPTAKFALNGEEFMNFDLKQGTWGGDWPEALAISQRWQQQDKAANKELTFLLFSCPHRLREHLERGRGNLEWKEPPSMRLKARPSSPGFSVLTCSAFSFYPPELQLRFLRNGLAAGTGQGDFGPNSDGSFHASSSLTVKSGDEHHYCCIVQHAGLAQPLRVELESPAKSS
T1 sequence (P61769 21-119 limits assumed, chain 2 of 2): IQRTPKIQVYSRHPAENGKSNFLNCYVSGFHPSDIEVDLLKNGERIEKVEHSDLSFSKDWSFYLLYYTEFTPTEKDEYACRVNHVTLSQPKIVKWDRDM

| Molecule | EC50, relative luciferase activity in CRE-Luc/GLP-1R HEK293 reporter cells [1] | Kd (hFcRn&b2M protein) |
| --- | --- | --- |
| GLP-1 (peptide) | 3.89 nM |  |
| FnAb12 single chain antibody (scFv, Single chain antibody from a phage library) scFv: DIQLTQSPSSLSASVGDRVTLTCQATQDIDNNLNWYQQKPGKAPKLLIYDASNLETGVPSRFSGSGSGTDFTFTISDLQPEDVATYYCQQYYNLPLTFGGGTKVDIKRSRGGGGSGGGGSGGGGSLEMAEVQLVQSGAEVKKPGASVKVSCKASGYTFTSYDINWVRQATGQGLEWMGWMNPNSGNTGYAQKFQGRVTMTRNTSISTAYMELSSLRSEDTAVYYCARGVDLGDGWGQGTLVTVSS |  | 15 nM |
